From publication PMC12089923

Biological target: AffiTagged cyclicPfAMA1-DI (folded protein 45) (Plasmodium falciparum)
Assay: SPR; AffiTagged cyclicPfAMA1-DI held on a nickel-NTA chip (BI-4500, Biosensing Instrument Inc.), PfRON2_(2021-2059) in solution; kinetic fit, average of three repeats

PfRON2_(2021-2059) peptide (rhoptry neck protein 2 ectodomain peptide) (from UniProt Q8IKV6 2021-2059)
Kd: 0.5 µM
koff: 0.0708 s⁻¹
kon: 142000 M⁻¹ s⁻¹
